Key:
Assay in all cases: split reporter (BiFC, NanoBiT); SFLC in living Arabidopsis mesophyll protoplasts: Aux/IAA-FLucN or MYB30-FLucN co-expressed with ARFCTD-FLucC or Aux/IAA-FLucC for 6 hr; 10 µg of each construct, 2×10^4 cells, 96-well plate, D-luciferin; relative activity standardised against ARF5CTD-FLucC + IAA28-FLucN
Details in all cases: partners not purified
IAA1-FLucC = biological target: T1, IAA1-FLucC (Arabidopsis, UniProt P49677 1-168)
T1 construct: Arabidopsis Aux/IAA protein IAA1; also called Aux/IAA-FLucC; source: Arabidopsis mesophyll protoplasts, transfected, in living cells; not shown: FLucC (firefly luciferase aa 394-550)
T1 sequence (looked up): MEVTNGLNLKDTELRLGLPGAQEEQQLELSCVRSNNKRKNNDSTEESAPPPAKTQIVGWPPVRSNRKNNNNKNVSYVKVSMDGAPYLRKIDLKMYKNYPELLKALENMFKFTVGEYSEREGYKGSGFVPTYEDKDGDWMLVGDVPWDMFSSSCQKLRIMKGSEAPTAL

[1] = biological target: T2, ARF18 C-terminal domain (CTD)-FLucC (Arabidopsis, UniProt Q9C5W9 489-602)
T2 construct: Arabidopsis auxin response factor 18, C-terminal dimerization domain (CTD); In the ARF-ARF tests the same CTD stood both as ARFCTD-FLucC and as ARFCTD-FLucN; one molecule for both; also called ARF18CTD-FLucC; ARFCTD-FLucC; source: Arabidopsis mesophyll protoplasts, transfected, in living cells; not shown: FLucC (firefly luciferase aa 394-550)
T2 sequence (looked up): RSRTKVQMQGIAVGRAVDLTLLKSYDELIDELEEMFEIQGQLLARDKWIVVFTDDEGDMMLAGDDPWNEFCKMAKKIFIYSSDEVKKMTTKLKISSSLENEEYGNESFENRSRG

[2] = biological target: T3, ARF12 C-terminal domain (CTD)-FLucC (Arabidopsis, UniProt Q9XID4 511-593)
T3 construct: Arabidopsis auxin response factor 12, C-terminal dimerization domain (CTD); In the ARF-ARF tests the same CTD stood both as ARFCTD-FLucC and as ARFCTD-FLucN; one molecule for both; also called ARF12CTD-FLucC; ARFCTD-FLucC; source: Arabidopsis mesophyll protoplasts, transfected, in living cells; not shown: FLucC (firefly luciferase aa 394-550)
T3 sequence (looked up): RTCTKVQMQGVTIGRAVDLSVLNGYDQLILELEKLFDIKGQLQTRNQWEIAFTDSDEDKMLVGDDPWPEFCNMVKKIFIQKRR

[3] = biological target: T4, ARF9 C-terminal domain (CTD)-FLucC (Arabidopsis, UniProt Q9XED8 523-638)
T4 construct: Arabidopsis auxin response factor 9, C-terminal dimerization domain (CTD); In the ARF-ARF tests the same CTD stood both as ARFCTD-FLucC and as ARFCTD-FLucN; one molecule for both; also called ARF9CTD-FLucC; ARFCTD-FLucC; source: Arabidopsis mesophyll protoplasts, transfected, in living cells (SFLC) and in lysate (co-IP); not shown: FLucC (firefly luciferase aa 394-550)
T4 sequence (looked up): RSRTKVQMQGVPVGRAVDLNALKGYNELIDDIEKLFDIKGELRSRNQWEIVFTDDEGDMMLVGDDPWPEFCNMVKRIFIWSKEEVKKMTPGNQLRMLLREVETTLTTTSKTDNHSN

IAA13-FLucC = biological target: T5, IAA13-FLucC (Arabidopsis, UniProt Q38831 1-247)
T5 construct: Arabidopsis Aux/IAA protein IAA13; also called Aux/IAA-FLucC; source: Arabidopsis mesophyll protoplasts, transfected, in living cells; not shown: FLucC (firefly luciferase aa 394-550)
T5 sequence (looked up): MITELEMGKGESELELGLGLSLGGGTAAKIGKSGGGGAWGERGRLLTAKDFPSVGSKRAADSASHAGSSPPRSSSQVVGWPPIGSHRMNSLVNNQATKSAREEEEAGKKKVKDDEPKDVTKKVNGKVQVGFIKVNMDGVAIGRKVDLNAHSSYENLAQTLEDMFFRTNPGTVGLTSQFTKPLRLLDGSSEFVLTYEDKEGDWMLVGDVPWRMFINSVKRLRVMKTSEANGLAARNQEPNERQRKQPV

[4] = biological target: T6, ARF10 C-terminal domain (CTD)-FLucC (Arabidopsis, UniProt Q9SKN5 580-693)
T6 construct: Arabidopsis auxin response factor 10, C-terminal dimerization domain (CTD); In the ARF-ARF tests the same CTD stood both as ARFCTD-FLucC and as ARFCTD-FLucN; one molecule for both; also called ARF10CTD-FLucC; ARFCTD-FLucC; source: Arabidopsis mesophyll protoplasts, transfected, in living cells (SFLC) and in lysate (co-IP); not shown: FLucC (firefly luciferase aa 394-550)
T6 sequence (looked up): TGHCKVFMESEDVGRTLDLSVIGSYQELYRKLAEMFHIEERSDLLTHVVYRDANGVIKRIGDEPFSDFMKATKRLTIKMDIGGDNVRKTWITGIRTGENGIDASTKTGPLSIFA

Measured: relative luciferase activity (standardised against ARF5CTD-FLucC + IAA28-FLucN)

B1: MYB30-FLucN (natural protein, UniProt Q9SCU7 1-323, looked up)
chain: MVRPPCCDKGGVKKGPWTPEEDIILVTYIQEHGPGNWRAVPTNTGLLRCSKSCRLRWTNYLRPGIKRGNFTEHEEKMIVHLQALLGNRWAAIASYLPQRTDNDIKNYWNTHLKKKLNKVNQDSHQELDRSSLSSSPSSSSANSNSNISRGQWERRLQTDIHLAKKALSEALSPAVAPIITSTVTTTSSSAESRRSTSSASGFLRTQETSTTYASSTENIAKLLKGWVKNSPKTQNSADQIASTEVKEVIKSDDGKECAGAFQSFSEFDHSYQQAGVSPDHETKPDITGCCSNQSQWSLFEKWLFEDSGGQIGDILLDENTNFF
notes: transcription factor MYB30, the unrelated protein used as negative control; source: Arabidopsis mesophyll protoplasts, transfected, in living cells; not shown: FLucN (firefly luciferase aa 1-398)
< 0.1: IAA1-FLucC | [1] | [2] | [3] | IAA13-FLucC | [4]

Source: paper PMC3212559, “Large-Scale Protein-Protein Interaction Analysis in Arabidopsis Mesophyll Protoplasts by Split Firefly Luciferase Complementation” (PLoS ONE, 2011)
